PMC3821859, “Role of the Acidic Tail of High Mobility Group Protein B1 (HMGB1) in Protein Stability and DNA Bending”

Assays:
[1] = target: HMGB1 (Homo sapiens, UniProt P09429 1-215); experiment: fluorescence anisotropy; 50 nM DNA; sigmoidal dose-response fit; 10 mM Tris-HCl pH 7.5, 50 mM NaCl, 0.5 mM DTT, 0.1 mM EDTA, 5% glycerol; 25 °C (anisotropy); conditions: protein: recombinant; tags: N-terminal 6xHis with TEV site, not removed; label: 5'-6-FAM on complementary strand; blunt
[2] = target: HMGB1ΔC (Homo sapiens, UniProt P09429 1-185, del186-215); experiment: as above; conditions: protein: recombinant; tags: N-terminal 6xHis with TEV site, not removed; label: 5'-6-FAM on complementary strand; blunt
HMGB1ΔC, sequence (P09429 1-185, stated change not applied): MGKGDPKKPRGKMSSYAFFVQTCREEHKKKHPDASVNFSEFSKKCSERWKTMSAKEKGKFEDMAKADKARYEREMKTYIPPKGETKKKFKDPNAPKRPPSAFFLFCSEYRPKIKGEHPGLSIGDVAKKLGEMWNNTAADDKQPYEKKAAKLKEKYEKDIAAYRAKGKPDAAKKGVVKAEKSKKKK

HMGB1, sequence (P09429 whole entry): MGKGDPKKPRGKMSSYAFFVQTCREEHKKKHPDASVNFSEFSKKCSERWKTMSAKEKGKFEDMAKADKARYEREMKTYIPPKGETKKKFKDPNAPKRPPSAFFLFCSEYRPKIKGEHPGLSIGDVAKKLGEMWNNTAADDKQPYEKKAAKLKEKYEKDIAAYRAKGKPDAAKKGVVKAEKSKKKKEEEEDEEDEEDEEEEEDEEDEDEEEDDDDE

B1: 20-bp dsDNA, 6-FAM (dsDNA)
DNA 1: TACTGTATGAGCATACAGTA
DNA 2: TACTGTATGCTCATACAGTA
Kd [1]: 88 ± 5 nM | Kd [2]: 72 ± 4 nM
